Data taken from patent US20250197467A1.

Each binder was assayed against His-tagged human IL-18BP (human) (UniProt O95998) (assay: AlphaLISA of free IL-18BP).
Sequence of His-tagged human IL-18BP (human) (O95998 31-194): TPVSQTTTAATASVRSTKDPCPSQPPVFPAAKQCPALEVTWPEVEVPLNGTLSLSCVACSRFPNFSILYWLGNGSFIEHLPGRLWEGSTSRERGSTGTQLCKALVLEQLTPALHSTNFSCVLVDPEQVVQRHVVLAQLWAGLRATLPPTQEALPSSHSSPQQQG

Kd [nM]	Binder
158	C325 + MMP9 (ligand) LAGGSGYFGKLKSKLSIIRNLNDQVLFIDQGNRPLFEDMTDSDARDNAPRTIFIISMYADSQPRGMAVAISVKCEKISTLSAENKIISFKEMNPPDNIKDTKSDIIFFQRSVPGHDNKMQFESSSYEGYFLAAEKERDLFKLILKKEDELGDRSIMFTVQNED
36.5	C324 + MMP9 (ligand) YFGKLKSKLSIIRNLNDQVLFIDQGNRPLFEDMTDSDARDNAPRTIFIISMYADSQPRGMAVAISVKCEKISTLSAENKIISFKEMNPPDNIKDTKSDIIFFQRSVPGHDNKMQFESSSYEGYFLAAEKERDLFKLILKKEDELGDRSIMFTVQNED
723	C316 + Matriptase (ligand) MAAEPVEDNSINFVAMKFIDNTLYFIAEDDENLESDSGRVANLVGYFGKLKSKLSIIRNLNDQVLFIDQGNRPLFEDMTDSDARDNAPRTIFIISMYADSQPRGMAVAISVKCEKISTLSAENKIISFKEMNPPDNIKDTKSDIIFFQRSVPGHDNKMQFESSSYEGYFLAAEKERDLFKLILKKEDELGDRSIMFTVQNED
586	C318 + Matriptase (ligand) MAAEPVEDNSINFVAMKFIDNTLYFIAEDDENLESDSGRVANYFGKLKSKLSIIRNLNDQVLFIDQGNRPLFEDMTDSDARDNAPRTIFIISMYADSQPRGMAVAISVKCEKISTLSAENKIISFKEMNPPDNIKDTKSDIIFFQRSVPGHDNKMQFESSSYEGYFLAAEKERDLFKLILKKEDELGDRSIMFTVQNED
139	C326 + MMP9 (ligand) LAGSGYFGKLKSKLSIIRNLNDQVLFIDQGNRPLFEDMTDSDARDNAPRTIFIISMYADSQPRGMAVAISVKCEKISTLSAENKIISFKEMNPPDNIKDTKSDIIFFQRSVPGHDNKMQFESSSYEGYFLAAEKERDLFKLILKKEDELGDRSIMFTVQNED
2100	C326 (ligand) MAAEPVEDNSINFVAMKFIDNTLYFIAEDDENLESDRGRRVANPLGLAGSGYFGKLKSKLSIIRNLNDQVLFIDQGNRPLFEDMTDSDARDNAPRTIFIISMYADSQPRGMAVAISVKCEKISTLSAENKIISFKEMNPPDNIKDTKSDIIFFQRSVPGHDNKMQFESSSYEGYFLAAEKERDLFKLILKKEDELGDRSIMFTVQNED
8550	C323 (ligand) MAAEPVEDNSINFVAMKFIDNTLYFIAEDDENLESDRGRRVANLVGGSGYFGKLKSKLSIIRNLNDQVLFIDQGNRPLFEDMTDSDARDNAPRTIFIISMYADSQPRGMAVAISVKCEKISTLSAENKIISFKEMNPPDNIKDTKSDIIFFQRSVPGHDNKMQFESSSYEGYFLAAEKERDLFKLILKKEDELGDRSIMFTVQNED
1880	C325 (ligand) MAAEPVEDNSINFVAMKFIDNTLYFIAEDDENLESDRGRRPLGLAGGSGYFGKLKSKLSIIRNLNDQVLFIDQGNRPLFEDMTDSDARDNAPRTIFIISMYADSQPRGMAVAISVKCEKISTLSAENKIISFKEMNPPDNIKDTKSDIIFFQRSVPGHDNKMQFESSSYEGYFLAAEKERDLFKLILKKEDELGDRSIMFTVQNED
